Experimental data published in doi:10.1101/2022.03.07.483330 (bioRxiv, 2022).

B1: human Notch2 (EGF6-13, residues 221-530), biotinylated (domain or fragment, UniProt Q04721 221-530, looked up)
chain: LYVPCAPSPCVNGGTCRQTGDFTFECNCLPGFEGSTCERNIDDCPNHRCQNGGVCVDGVNTYNCRCPPQWTGQFCTEDVDECLLQPNACQNGGTCANRNGGYGCVCVNGWSGDDCSENIDDCAFASCTPGSTCIDRVASFSCMCPEGKAGLLCHLDDACISNPCHKGALCDTNPLNGQYICTCPQGYKGADCTEDVDECAMANSNPCEHAGKCVNTDGAFHCECLKGYAGPRCEMDINECHSDPCQNDATCLDKIGGFTCLCMPGFKGVHCELEINECQSNPCVNNGQCVDKVNRFQCLCPPGFTGPVCQ
modifications: biotin on the C-terminal BAP-tag (BirA)
B2: human Notch3 (EGF5-12, residues 197-505), biotinylated (domain or fragment, UniProt Q9UM47 197-505, looked up)
chain: PAVPCAPSPCRNGGTCRQSGDLTYDCACLPGFEGQNCEVNVDDCPGHRCLNGGTCVDGVNTYNCQCPPEWTGQFCTEDVDECQLQPNACHNGGTCFNTLGGHSCVCVNGWTGESCSQNIDDCATAVCFHGATCHDRVASFYCACPMGKTGLLCHLDDACVSNPCHEDAICDTNPVNGRAICTCPPGFTGGACDQDVDECSIGANPCEHLGRCVNTQGSFLCQCGRGYTGPRCETDVNECLSGPCRNQATCLDRIGQFTCICMAGFTGTYCEVDIDECQSSPCVNGGVCKDRVNGFSCTCPSGFSGSTCQ
modifications: biotin on the C-terminal BAP-tag (BirA)
B3: mouse Notch1 (EGF6-13, residues 221-526), biotinylated (domain or fragment, UniProt Q01705 221-526, looked up)
chain: PCSPSPCQNGGTCRPTGDTTHECACLPGFAGQNCEENVDDCPGNNCKNGGACVDGVNTYNCRCPPEWTGQYCTEDVDECQLMPNACQNGGTCHNTHGGYNCVCVNGWTGEDCSENIDDCASAACFQGATCHDRVASFYCECPHGRTGLLCHLNDACISNPCNEGSNCDTNPVNGKAICTCPSGYTGPACSQDVDECALGANPCEHAGKCLNTLGSFECQCLQGYTGPRCEIDVNECISNPCQNDATCLDQIGEFQCICMPGYEGVYCEINTDECASSPCLHNGHCMDKINEFQCQCPKGFNGHLCQ
modifications: biotin on the C-terminal BAP-tag (BirA)
B4: human Notch4 (EGF7-12, residues 276-511), biotinylated (domain or fragment, UniProt Q99466 276-511, looked up)
chain: NPDNCVSHQCQNGGTCQDGLDTYTCLCPETWTGWDCSEDVDECETQGPPHCRNGGTCQNSAGSFHCVCVSGWGGTSCEENLDDCIAATCAPGSTCIDRVGSFSCLCPPGRTGLLCHLEDMCLSQPCHGDAQCSTNPLTGSTLCLCQPGYSGPTCHQDLDECLMAQQGPSPCEHGGSCLNTPGSFNCLCPPGYTGSRCEADHNECLSQPCHPGSTCLDLLATFHCLCPPGLEGQLCE
modifications: biotin on the C-terminal BAP-tag (BirA)

Assays:
[1] = biological target: human wild-type DLL4 (N-EGF5, residues 27-400) (human, UniProt Q9NR61 27-400); test: SPR
human wild-type DLL4 (N-EGF5, residues 27-400), sequence (Q9NR61 27-400): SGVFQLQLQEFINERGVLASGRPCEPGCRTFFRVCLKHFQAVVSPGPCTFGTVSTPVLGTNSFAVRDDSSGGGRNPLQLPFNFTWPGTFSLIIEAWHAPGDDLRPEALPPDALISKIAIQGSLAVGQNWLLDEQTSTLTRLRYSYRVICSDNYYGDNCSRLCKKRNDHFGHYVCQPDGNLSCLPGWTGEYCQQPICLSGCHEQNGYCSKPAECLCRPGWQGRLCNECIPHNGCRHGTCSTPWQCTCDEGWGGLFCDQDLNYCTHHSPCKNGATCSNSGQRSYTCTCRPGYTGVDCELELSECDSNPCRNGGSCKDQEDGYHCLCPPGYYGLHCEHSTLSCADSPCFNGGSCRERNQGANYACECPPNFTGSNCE

[2] = biological target: DLL4.v2 (N-EGF5) (human, UniProt Q9NR61 27-400, N257P | T271L | F280Y | S301R | Q305P); test: SPR
DLL4.v2 (N-EGF5), sequence (Q9NR61 27-400 N257P/T271L/F280Y/S301R/Q305P): as the sequence (Q9NR61 27-400) above, with N231P, T245L, F254Y, S275R, Q279P counted along it

| Binder | binding result [1] | binding result [2] |
| --- | --- | --- |
| B1 | binds | binds |
| B2 | binds | binds |
| B3 | binds | binds |
| B4 | binds | binds |
